Like-named read-outs stand apart in the source and are kept apart here. One block for each substance: values may come before it.
Assays:
[1] = target: T1, NTHi SapA (Haemophilus influenzae, UniProt Q4QL73); test: Spectral shift assay with fluorescently labeled SapA; type: binding, nontypeable Haemophilus influenzae; details: peptide up to 100 or 500 μM, triplicate
T1 sequence (Q4QL73 32-546): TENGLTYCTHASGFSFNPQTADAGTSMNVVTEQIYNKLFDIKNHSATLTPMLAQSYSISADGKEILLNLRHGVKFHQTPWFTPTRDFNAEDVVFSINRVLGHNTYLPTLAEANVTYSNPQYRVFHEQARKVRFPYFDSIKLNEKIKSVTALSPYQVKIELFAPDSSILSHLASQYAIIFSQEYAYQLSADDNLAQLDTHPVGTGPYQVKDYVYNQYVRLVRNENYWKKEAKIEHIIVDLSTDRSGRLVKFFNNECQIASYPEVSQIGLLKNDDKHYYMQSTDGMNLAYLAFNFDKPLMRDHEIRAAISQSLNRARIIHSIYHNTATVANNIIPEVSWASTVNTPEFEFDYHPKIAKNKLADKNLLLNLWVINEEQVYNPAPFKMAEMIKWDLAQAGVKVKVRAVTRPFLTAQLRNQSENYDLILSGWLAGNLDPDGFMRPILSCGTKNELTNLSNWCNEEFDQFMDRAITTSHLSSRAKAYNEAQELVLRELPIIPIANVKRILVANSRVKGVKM

[2] = cited from earlier work
[3] = system: NTHi strain 86–028NP (parent strain); test: Bactericidal assay, parental strain; type: cell-based, nontypeable Haemophilus influenzae; details: 10 μg/mL AMP, 1 h
[4] = at the concentrations used for affinity experiments; cited from earlier work
[5] = target: T1, NTHi SapA; test: SPR single-cycle kinetics, SapA over immobilized AMPs; type: binding, nontypeable Haemophilus influenzae; details: LL-37 immobilized on SPR sensor chip, five increasing SapA concentrations
[6] = Dynamic light scattering of LL-37; type: physicochemical; details: LL-37 at 1 mg/mL; data not shown
[7] = system: NTHi 86–028NP ΔsapA mutant; test: Bactericidal assay, ΔsapA mutant; type: cell-based, nontypeable Haemophilus influenzae; details: 10 μg/mL AMP, 1 h
[8] = target: hBD-3_(loop) peptide (C2–C4 loop region of hBD-3 with C-terminal linker) (human); test: SPR
[9] = target: hBD-2_(loop) peptide (C2–C4 loop region of hBD-2 with C-terminal linker) (human); test: SPR
[10] = target: hNP-1_(loop) peptide (C2–C4 loop region of hNP-1 with C-terminal linker) (human); test: SPR
[11] = target: human β-defensin 3 (hBD-3) (human) (UniProt P81534); test: SPR
human β-defensin 3 (hBD-3) (human), sequence (P81534 23-67): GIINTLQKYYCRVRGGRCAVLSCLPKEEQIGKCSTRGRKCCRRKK

[12] = target: human α-defensin 1 (hNP-1) (human); test: SPR
[13] = target: human β-defensin 2 (hBD-2) (human) (UniProt O15263); test: SPR
human β-defensin 2 (hBD-2) (human), sequence (O15263 24-64): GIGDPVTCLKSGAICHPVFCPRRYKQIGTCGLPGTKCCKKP

[14] = target: hBD-3_(loop) peptide (C2–C4 loop region of hBD-3 with C-terminal linker) (human); test: SPR; remark: listed apart in the source
[15] = target: hBD-2_(loop) peptide (C2–C4 loop region of hBD-2 with C-terminal linker) (human); test: SPR; remark: listed apart in the source
[16] = target: hNP-1_(loop) peptide (C2–C4 loop region of hNP-1 with C-terminal linker) (human); test: SPR; remark: listed apart in the source

Substance: protamine
- net charge [2]: +21

Substance: PR-39
- net charge [2]: +10

Substance: LL-37: alpha helical peptide, the only member of the cathelicidin family found in humans
- survival of the parent strain at 10 μg/mL [3]: neither the parent strain nor the ΔsapA mutant survived
- oligomeric state in solution [4]: higher order oligomers
- SapA binding to LL-37 (SPR), result in words [5]: low affinity
- aggregation by dynamic light scattering [6]: aggregated at high concentrations
- affinity to labeled SapA, result in words [1]: low affinity
- survival of the ΔsapA mutant at 10 μg/mL [7]: neither the parent strain nor the ΔsapA mutant survived

Substance: NTHi SapA (residues 32–546), wild type (from UniProt Q4QL73 32-546) (natural protein)
- ka1 (two-state model, first step) [8]: 280000 M⁻¹ s⁻¹
- ka2 (two-state model, second step) [8]: 0.012 s⁻¹
- kd1 (two-state model, first step) [8]: 0.028 s⁻¹
- kd2 (two-state model, second step) [8]: 0.00012 s⁻¹
- ka1 (two-state model, first step) [9]: 760000 M⁻¹ s⁻¹
- ka2 (two-state model, second step) [9]: 0.0095 s⁻¹
- kd1 (two-state model, first step) [9]: 0.034 s⁻¹
- kd2 (two-state model, second step) [9]: 0.00024 s⁻¹
- Kd [10]: 3.8 nM
- ka1 (two-state model, first step) [10]: 880000 M⁻¹ s⁻¹
- ka2 (two-state model, second step) [10]: 0.0064 s⁻¹
- kd2 (two-state model, second step) [10]: 0.00045 s⁻¹
- Kd [11]: 10.5 nM
- ka1 (two-state model, first step) [11]: 710000 M⁻¹ s⁻¹
- ka2 (two-state model, second step) [11]: 0.0059 s⁻¹
- kd1 (two-state model, first step) [11]: 0.019 s⁻¹
- kd2 (two-state model, second step) [11]: 0.0022 s⁻¹
- Kd [12]: 4 nM
- ka1 (two-state model, first step) [12]: 360000 M⁻¹ s⁻¹
- ka2 (two-state model, second step) [12]: 0.0061 s⁻¹
- kd1 (two-state model, first step) [12]: 0.012 s⁻¹
- kd2 (two-state model, second step) [12]: 0.00069 s⁻¹
- Kd [13]: 17.5 nM
- ka1 (two-state model, first step) [13]: 630000 M⁻¹ s⁻¹
- ka2 (two-state model, second step) [13]: 0.013 s⁻¹
- kd1 (two-state model, first step) [13]: 0.047 s⁻¹
- kd2 (two-state model, second step) [13]: 0.0026 s⁻¹
- Kd [14]: 17.2 nM
- ka2 (two-state model, second step) [14]: 0.004 s⁻¹
- kd1 (two-state model, first step) [14]: 0.033 s⁻¹
- kd2 (two-state model, second step) [14]: 0.003 s⁻¹
- Kd [15]: 9.5 nM
- ka1 (two-state model, first step) [15]: 750000 M⁻¹ s⁻¹
- ka2 (two-state model, second step) [15]: 0.0024 s⁻¹
- kd1 (two-state model, first step) [15]: 0.019 s⁻¹
- kd2 (two-state model, second step) [15]: 0.0014 s⁻¹
- Kd [16]: 17.1 nM
- ka2 (two-state model, second step) [16]: 0.0026 s⁻¹
- kd1 (two-state model, first step) [16]: 0.023 s⁻¹
- kd2 (two-state model, second step) [16]: 0.0019 s⁻¹

Other lines, results leading:

- affinity to labeled SapA, result in words [1]: completely abolished affinity
Substance: SSYGT [hNP-1SSYGT]

- affinity to labeled SapA, result in words [1]: completely abolished affinity
Substance: SSYKQ [hBD-2SSYKQ]

- affinity to labeled SapA, result in words [1]: completely abolished affinity
Substance: PSSEQ [hBD-3PSSEQ]
